Results on four compounds are retold here after paper PMC7022249, “Biochemical and Structural Characterization of OXA-405, an OXA-48 Variant with Extended-Spectrum β-Lactamase Activity” (Microorganisms, 2019).

The target of series [1] is T1, OXA-405 β-lactamase (Serratia marcescens, UniProt A0A0F6P2I5).
T1 construct: gene blaOXA-405
Description: steady-state hydrolysis kinetics (Km) with purified enzyme. It is filed as biochemical.

The test system of series [2] is C[C@@H](O)[C@H]1C(=O)N2C(C(=O)O)=C(S[C@@H]3CN[C@H](C(=O)Nc4cccc(C(=O)O)c4)C3)[C@H](C)[C@H]12. The series is described as above. It is filed as biochemical, Serratia marcescens.
For series [3], the system named is CC1(C)S[C@@H]2[C@H](NC(=O)[C@H](N)c3ccccc3)C(=O)N2[C@H]1C(=O)O. The series is described as above. Format: biochemical, Serratia marcescens.
For series [4], the system named is Cc1onc(-c2ccccc2)c1C(=O)N[C@@H]1C(=O)N2[C@@H]1SC(C)(C)[C@@H]2C(=O)O. Described as above. Format: biochemical, Serratia marcescens.
Series [5] concerns C[C@@H](O)[C@H]1C(=O)N2C(C(=O)O)=C(SCCN=CN)C[C@H]12. Described as above. It is filed as biochemical, Serratia marcescens.
The subject of series [6] is CC1(C)S[C@@H]2[C@H](NC(=O)Cc3ccccc3)C(=O)N2[C@H]1C(=O)O. The series is described as above. It is filed as biochemical, Serratia marcescens.
Series [7] concerns CC(=O)OCC1=C(C(=O)O)N2C(=O)[C@@H](NC(=O)Cc3cccs3)[C@H]2SC1. Described as above. It is filed as biochemical, Serratia marcescens.
Series [8] deals with CO/N=C(\C(=O)N[C@@H]1C(=O)N2C(C(=O)O)=C(COC(C)=O)CS[C@H]12)c1csc(N)n1. Described as above. It is filed as biochemical, Serratia marcescens.
In series [9] the target is T1, OXA-405 β-lactamase. Description: IC50 with purified enzyme, […] benzylpenicillin as reporter substrate, […] min preincubation. Format: biochemical.

T1 sequence (A0A0F6P2I5 23-261 limits assumed): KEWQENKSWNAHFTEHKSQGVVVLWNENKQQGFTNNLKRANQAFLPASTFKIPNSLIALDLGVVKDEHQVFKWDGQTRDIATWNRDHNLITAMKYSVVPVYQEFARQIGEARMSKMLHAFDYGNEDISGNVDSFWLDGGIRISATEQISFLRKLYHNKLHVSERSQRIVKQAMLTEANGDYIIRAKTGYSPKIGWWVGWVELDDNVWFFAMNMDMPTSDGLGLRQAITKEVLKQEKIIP

Take `CC(C)(O/N=C(\C(=O)N[C@@H]1C(=O)N2C(C(=O)[O-])=C(C[n+]3ccccc3)CS[C@H]12)c1csc(N)n1)C(=O)O` [Ceftazidime]: the Km on OXA-405 β-lactamase [1] was over 1000 µM.
As to “OXA-405 β-lactamase (Serratia marcescens)”, the Km worked out at 88 µM in [2]; 212 µM in [3]; 69 µM in series [4]; 532 µM in series [5]; 18 µM in [6]; 18 µM in [7]. Moreover, in series [8], the Michaelis-Menten constant (Km) turned out to be 369 µM. Also, the turnover number (kcat) in [2] turned out to be 0.04 s⁻¹; in [3], 29 s⁻¹; in series [4], 19 s⁻¹; in series [5], 0.1 s⁻¹; in series [6], 12 s⁻¹; in series [7] it was 8 s⁻¹. The kcat in series [8] amounted to 9.7 s⁻¹. Further, the kcat/Km is 400 M⁻¹ s⁻¹ in [2]; 137000 M⁻¹ s⁻¹ in [3]; 275000 M⁻¹ s⁻¹ in [4]; 200 M⁻¹ s⁻¹ in [5]; 667000 M⁻¹ s⁻¹ in series [6]; 444000 M⁻¹ s⁻¹ in series [7]. In [8], the kcat/Km turned out to be 26000 M⁻¹ s⁻¹.
With `C[C@]1(Cn2ccnn2)[C@H](C(=O)O)N2C(=O)C[C@H]2S1(=O)=O` [Tazobactam], the IC50 on OXA-405 β-lactamase [9] is 1.8 µM. This lies in the single-digit micromolar range.
The same measure, in the same setting: in the case of `O=C(O)[C@H]1/C(=C/CO)O[C@@H]2CC(=O)N21` [Clavulanic acid] it was 6 µM.

As usually defined, the Km is the substrate concentration at which the rate is half of its maximum. In general, kcat refers to the maximal rate divided by the concentration of active sites. For orientation: kcat/Km means the second-order rate constant that governs catalysis at low substrate concentration. The IC50 is the point on the concentration scale where inhibition reaches its midpoint. Read a low IC50 as higher potency.
